{"source": "patent US20060252692A1", "about": "“Inhibitors for use in hemostasis” (ZymoGenetics, Inc., priority 2002, published 2006)", "molecules": {"B1": {"name": "zsig37: adipocyte complement related protein homolog, polypeptide of SEQ ID NO:2, inhibits collagen-mediated platelet activation and the complement pathway (protein, listed as Homo sapiens)", "chain": "MGSRGQGLLLAYCLLLAFASGLVLSRVPHVQGEQQEWEGTEELPSPPDHAERAEEQHEKYRPSQDQGLPASRCLRCCDPGTSMYPATAVPQINITILKGEKGDRGDRGLQGKYGKTGSAGARGHTGPKGQKGSMGAPGERCKSHYAAFSVGRKKPMHSNHYYQTVIFDTEFVNLYDHFNMFTGKFYCYVPGLYFFSLNVHTWNQKETYLHIMKNEEEVVILFAQVGDRSIMQSQSLMLELREQDQVWVRLYKGERENAIFSEELDTYITFSGYLVKHATEP"}}, "key": {"[1]": {"test_system": "classical pathway of human Complement serum", "assay": "Complement hemolysis assay, classical pathway (sheep erythrocytes)", "format": "biochemical", "description": "(§1) Complement assays were performed in 96 well round bottom plates. Gelatin Veronal buffer containing magnesium and calcium (141 mM NaCl, 1.8 mM sodium barbitol, 3.1 mM barbituric acid, 0.1% bovine gelatin, 0.5 mM MgCl2 and 0.15 mM CaCl2) was used for all serum and inhibitor dilutions as well as erythrocyte suspensions. Fifty microliters of standardized human Complement serum (Sigma Chemical Co.), diluted 1/37.5 (for a final dilution of 1/150) was added to each well. The inhibitor was added in triplicate, 50 μl/well. The serum and inhibitor were incubated for thirty minutes at room temperature. The assay was initiated by the addition of 100 μl of 2×10^8/ml unsensitized sheep erythrocytes (Colorado Serum Co.; Denver, Colo.), sensitized sheep erythrocytes, sensitized using the Hemolysin manufacturer's protocol (BioWhittaker Inc.; Walkersville, Md.) and rabbit erythrocytes containing 16 mM EGTA, and 4 mM Mg^++. A human serum dilution series from 1/50 to 1/400 was also plated as an activity control. Erythrocytes, lysed with distilled water and diluted to 100, 75, 50, 25, and 12.5 percent lysis, were used to quantify complement percent lysis. The plate was sealed and incubated at 37° C. for one hour with mixing every 15 minutes. […] The plate was read at 415 nm and percent lysis was calculated."}, "[2]": {"test_system": "norepinepherin contracted aortic rings", "assay": "Vasodilatation of norepinepherin contracted aortic rings", "design": "species or system Sprague Dawley rats", "conditions": "323, 162, and 81 ng/ml", "description": "The effect of zsig37 on vasodilatation of aortic rings was measured according to the procedures of (Dainty et al., J. Pharmacol. 100:767 (1990), and Rhee et al., Neurotox. 16:179 (1995)). Briefly, aortic rings 4 mm in length were taken from 4 month old Sprague Dawley rats and placed in modified Krebs solution (118.5 mM NaCl, 4.6 mM KCl, 1.2 mM MgSO4.7H2O, 1.2 mM KH2PO4, 2.5 mM CaCl2.2H2O, 24.8 mM NaHCO3 and 10 mM glucose). The rings were then attached to an isometric force transducer (Radnoti Inc.; Monrovia, Calif.) and the data recorded with a Ponemah physiology platform (Gould Instrument systems, Inc.; Valley View, Ohio) and placed in a 10 ml tissue bath oxygenated (95% O2, 5% CO2) modified Krebs solution. The tissues were adjusted to one gram resting tension and allowed to stabilize for one hour before testing.\nThe rings were tested by 5 μl additions of […] norepinepherin (Sigma Chemical Co.; St. Louis, Mo.) to a final concentration of about 1×10^−9 M and Carbachol, a muscarinic acetylcholine agonist (Sigma Chemical Co.) at 2×10^−7 M final, to test the integrity of the rings. After each test, the rings were washed three times with fresh buffer, five minutes between washes and allowed to rest one hour. […] Zsig37 was then added to one, two, or three of the four baths, without flushing, and tension on the rings was recorded and compared to the control rings. […]"}, "[3]": {"test_system": "A7-BaF-3 cells", "assay": "Proliferation assay on zsig37-coated plates, A7-BaF-3", "format": "cell-based", "conditions": "5,000 cells/well", "description": "A second assay was performed with TF-1, DA-1, an IL-3 dependent cell line derived from the lymph node of a mouse with a B-cell lymphoma by outgrowth in IL-3 media, pre-B (p53−/− mouse marrow cells, IL-7 dependent, B220+, Thy1 low, Sca-1+), and A7BaF-3 cell lines as described above at 5,000 cells/well. BHK cells were also plated at 500 cells/well."}, "[4]": {"molecular_target": "T1, collagen type VI (Homo sapiens, UniProt P12109+P12110+P12111)", "T1 construct": "purchased Chemicon International; Temecula, Calif", "T1 sequence (P12109 20-1028)": "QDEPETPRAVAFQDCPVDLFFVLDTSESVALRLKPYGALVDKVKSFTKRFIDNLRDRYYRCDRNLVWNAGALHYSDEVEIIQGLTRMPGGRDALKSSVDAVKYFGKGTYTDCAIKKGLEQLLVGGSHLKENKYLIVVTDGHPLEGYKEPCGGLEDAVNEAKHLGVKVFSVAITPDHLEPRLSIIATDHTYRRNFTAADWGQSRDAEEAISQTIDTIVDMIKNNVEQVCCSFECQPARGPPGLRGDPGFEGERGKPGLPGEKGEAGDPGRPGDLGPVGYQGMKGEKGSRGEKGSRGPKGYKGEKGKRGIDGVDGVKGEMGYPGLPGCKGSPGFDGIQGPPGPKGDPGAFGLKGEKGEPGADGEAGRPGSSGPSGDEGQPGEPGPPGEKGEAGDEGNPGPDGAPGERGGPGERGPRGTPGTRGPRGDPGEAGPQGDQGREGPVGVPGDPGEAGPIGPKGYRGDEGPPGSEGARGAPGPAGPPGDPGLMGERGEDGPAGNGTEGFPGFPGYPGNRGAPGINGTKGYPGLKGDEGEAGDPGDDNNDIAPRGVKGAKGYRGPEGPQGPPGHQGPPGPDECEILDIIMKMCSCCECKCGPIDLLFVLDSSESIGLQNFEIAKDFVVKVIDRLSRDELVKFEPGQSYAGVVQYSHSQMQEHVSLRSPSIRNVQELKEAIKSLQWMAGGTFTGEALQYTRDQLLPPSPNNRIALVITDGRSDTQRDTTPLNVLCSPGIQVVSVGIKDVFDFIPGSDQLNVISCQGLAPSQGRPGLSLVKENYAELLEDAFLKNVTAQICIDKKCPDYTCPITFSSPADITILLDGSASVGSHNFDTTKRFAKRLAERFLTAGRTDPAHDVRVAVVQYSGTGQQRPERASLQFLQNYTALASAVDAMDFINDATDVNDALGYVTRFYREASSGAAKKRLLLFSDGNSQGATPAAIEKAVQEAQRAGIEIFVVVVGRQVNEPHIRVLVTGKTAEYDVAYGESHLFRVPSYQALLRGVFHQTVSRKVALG", "T1 sequence (P12110 21-1019)": "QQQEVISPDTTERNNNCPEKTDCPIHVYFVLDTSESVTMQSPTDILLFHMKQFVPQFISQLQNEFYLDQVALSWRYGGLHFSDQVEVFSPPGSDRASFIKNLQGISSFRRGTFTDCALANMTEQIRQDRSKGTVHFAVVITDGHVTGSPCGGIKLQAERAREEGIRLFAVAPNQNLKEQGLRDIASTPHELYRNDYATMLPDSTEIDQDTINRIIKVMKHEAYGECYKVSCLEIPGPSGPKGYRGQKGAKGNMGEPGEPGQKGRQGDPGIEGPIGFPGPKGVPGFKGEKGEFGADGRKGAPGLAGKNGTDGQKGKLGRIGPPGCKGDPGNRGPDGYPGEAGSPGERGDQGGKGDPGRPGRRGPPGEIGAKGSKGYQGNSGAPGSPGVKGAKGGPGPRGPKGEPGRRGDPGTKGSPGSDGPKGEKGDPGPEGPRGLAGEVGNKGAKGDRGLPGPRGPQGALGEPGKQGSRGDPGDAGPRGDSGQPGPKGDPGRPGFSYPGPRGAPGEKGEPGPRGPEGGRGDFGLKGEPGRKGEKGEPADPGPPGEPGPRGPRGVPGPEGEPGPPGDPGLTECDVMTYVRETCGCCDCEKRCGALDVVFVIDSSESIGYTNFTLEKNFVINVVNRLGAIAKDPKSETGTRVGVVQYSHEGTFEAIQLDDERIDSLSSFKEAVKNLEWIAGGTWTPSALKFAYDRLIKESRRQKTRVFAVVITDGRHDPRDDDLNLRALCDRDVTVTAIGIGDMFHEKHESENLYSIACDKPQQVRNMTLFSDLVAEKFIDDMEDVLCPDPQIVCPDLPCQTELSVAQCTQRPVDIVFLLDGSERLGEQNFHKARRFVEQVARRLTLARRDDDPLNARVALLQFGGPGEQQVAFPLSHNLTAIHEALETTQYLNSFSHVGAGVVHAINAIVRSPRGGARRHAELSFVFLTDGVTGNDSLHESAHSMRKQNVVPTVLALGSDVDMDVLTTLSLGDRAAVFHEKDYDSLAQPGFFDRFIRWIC", "T1 sequence (P12111 26-3177)": "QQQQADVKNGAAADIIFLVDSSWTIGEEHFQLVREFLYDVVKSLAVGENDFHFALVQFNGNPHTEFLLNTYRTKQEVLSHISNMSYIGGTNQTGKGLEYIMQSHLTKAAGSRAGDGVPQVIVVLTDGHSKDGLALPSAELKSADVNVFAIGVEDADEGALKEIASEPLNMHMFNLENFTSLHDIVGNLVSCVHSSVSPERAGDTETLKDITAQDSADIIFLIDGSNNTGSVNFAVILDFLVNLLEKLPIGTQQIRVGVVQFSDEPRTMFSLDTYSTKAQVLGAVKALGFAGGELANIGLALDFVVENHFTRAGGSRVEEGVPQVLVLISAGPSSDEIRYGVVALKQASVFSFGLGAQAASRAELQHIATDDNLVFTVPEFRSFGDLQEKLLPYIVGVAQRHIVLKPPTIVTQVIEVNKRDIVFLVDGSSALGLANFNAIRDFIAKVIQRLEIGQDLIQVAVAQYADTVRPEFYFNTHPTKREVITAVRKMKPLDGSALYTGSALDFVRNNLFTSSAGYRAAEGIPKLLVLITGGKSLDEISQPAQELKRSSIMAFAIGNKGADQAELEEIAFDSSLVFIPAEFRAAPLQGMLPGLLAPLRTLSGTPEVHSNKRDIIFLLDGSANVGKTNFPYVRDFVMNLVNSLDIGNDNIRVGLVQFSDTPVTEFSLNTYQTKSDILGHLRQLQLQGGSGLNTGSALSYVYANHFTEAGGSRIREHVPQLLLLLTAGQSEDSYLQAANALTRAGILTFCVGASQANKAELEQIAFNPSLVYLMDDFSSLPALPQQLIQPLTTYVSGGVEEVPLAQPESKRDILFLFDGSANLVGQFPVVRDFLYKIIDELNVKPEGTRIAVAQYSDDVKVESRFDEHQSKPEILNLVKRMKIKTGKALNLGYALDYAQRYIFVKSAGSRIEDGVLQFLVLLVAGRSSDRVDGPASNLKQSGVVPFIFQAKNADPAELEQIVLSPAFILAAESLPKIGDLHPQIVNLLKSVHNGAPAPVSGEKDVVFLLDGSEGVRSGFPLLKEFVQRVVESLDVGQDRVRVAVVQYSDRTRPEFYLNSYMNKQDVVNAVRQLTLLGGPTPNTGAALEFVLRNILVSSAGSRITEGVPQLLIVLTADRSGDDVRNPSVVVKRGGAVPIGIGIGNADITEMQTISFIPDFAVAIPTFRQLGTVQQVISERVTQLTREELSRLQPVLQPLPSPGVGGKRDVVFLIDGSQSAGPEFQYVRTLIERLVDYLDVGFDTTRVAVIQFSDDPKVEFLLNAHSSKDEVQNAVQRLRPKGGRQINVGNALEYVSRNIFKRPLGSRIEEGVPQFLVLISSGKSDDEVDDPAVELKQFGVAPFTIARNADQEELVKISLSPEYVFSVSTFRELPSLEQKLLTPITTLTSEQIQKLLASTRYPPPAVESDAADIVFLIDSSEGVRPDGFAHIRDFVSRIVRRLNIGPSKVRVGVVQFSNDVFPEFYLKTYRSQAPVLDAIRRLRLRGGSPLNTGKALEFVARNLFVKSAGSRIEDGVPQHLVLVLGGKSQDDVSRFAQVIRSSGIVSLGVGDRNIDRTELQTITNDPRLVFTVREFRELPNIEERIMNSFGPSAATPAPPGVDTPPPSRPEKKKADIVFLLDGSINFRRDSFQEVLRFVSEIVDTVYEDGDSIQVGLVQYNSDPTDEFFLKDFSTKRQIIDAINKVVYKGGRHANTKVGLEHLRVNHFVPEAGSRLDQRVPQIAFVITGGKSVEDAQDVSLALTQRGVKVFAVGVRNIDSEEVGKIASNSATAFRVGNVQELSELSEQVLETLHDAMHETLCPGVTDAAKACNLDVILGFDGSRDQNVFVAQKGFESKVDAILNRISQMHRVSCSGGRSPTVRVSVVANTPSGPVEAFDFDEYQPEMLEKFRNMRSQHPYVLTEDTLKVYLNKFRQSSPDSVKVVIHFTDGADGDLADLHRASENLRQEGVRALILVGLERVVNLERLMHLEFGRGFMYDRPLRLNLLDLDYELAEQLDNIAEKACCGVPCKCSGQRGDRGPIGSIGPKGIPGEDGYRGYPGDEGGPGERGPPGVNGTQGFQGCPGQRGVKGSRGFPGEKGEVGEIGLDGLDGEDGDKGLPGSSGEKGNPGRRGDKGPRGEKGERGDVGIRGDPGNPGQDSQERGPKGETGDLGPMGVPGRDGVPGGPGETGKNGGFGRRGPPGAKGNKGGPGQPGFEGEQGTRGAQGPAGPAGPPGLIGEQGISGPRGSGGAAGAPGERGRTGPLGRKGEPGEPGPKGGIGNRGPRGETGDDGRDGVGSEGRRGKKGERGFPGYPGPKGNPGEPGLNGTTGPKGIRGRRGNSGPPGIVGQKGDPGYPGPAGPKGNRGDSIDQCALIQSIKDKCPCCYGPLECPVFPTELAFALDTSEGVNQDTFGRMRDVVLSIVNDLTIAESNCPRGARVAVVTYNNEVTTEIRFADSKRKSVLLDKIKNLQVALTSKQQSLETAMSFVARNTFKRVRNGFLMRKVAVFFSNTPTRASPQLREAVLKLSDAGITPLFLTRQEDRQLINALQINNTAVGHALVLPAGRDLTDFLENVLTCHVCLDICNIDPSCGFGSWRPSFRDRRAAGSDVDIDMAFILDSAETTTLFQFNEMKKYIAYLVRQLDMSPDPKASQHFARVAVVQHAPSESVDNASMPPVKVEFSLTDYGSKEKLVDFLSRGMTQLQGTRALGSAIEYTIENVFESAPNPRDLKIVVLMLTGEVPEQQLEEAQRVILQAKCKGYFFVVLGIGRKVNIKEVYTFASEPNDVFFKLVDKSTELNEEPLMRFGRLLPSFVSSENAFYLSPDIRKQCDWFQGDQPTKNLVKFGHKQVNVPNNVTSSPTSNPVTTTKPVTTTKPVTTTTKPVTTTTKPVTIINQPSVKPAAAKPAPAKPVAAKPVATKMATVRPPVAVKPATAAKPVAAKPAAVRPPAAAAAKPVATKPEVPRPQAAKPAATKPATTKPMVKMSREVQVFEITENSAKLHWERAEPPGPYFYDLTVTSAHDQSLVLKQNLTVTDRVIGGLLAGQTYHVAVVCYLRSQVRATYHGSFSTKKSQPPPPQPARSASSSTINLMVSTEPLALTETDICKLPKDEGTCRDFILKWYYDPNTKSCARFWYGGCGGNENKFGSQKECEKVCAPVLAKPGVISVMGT", "assay": "Quantitative ELISA binding to collagen type VI", "conditions": "Zsig37-FITC 0.4 to 4 μg/ml, 10 μg collagen type VI", "description": "An ELISA (Enzyme-linked Immunosorbant Assay) was used to measure binding of zsig37 to complement C1q, and to the following matrix proteins: Bovine Collagen Type I (Becton Dickinson; Lincoln Park, N.J.), laminin, vitronectin, fibronectin, human collagen Types II, III, IV, V, VI (Chemicon International; Temecula, Calif.). BSA V (Sigma Chemical Co.) was used as a negative control. Just prior to use, the proteins were diluted in 2× PBS (Phosphate Buffered Saline, Sigma Chemical Co.) to 100 μg/ml and adjusted to pH 7.2 with 0.1 N NaOH. Each protein sample was plated in quadruplicate (100 μl/well) into a 96 well plate. The plate was allowed to dry overnight in a laminar flow hood and washed three times with 400 μl of 5 mg/ml BSA in 1× PBS and blotted dry. Zsig37 was FITC labeled according to manufacturer's instruction (Pierce; Rockford, Ill.). Into each well was added 100 μl of 1.8 μg/ml zsig37-FITC in 5% BSA, PBS. The plates were incubated for 1.5 hours at room temperature then washed 3 time with 5% BSA, PBS. To each well was then added 100 μl of 1:400 mouse anti-FITC/Biotin (Sigma Chemical Co.). […]\nThe ELISA assay for binding, described above, was modified to quantitatively evaluate binding. […] The luminescence from the SUPERSIGNAL reagent was read on a Wallac 1420 plate reader (Wallac; Gaithersburg Md.) and the intensity used as a quantitative measure of the zsig37-FITC bound to the ELISA plate."}, "[5]": {"test_system": "alternate pathway of human Complement serum", "assay": "Complement hemolysis assay, alternate pathway (rabbit erythrocytes and EGTA)", "format": "biochemical", "description": "as §1"}}, "data": [{"molecule": "B1", "values": [{"measurement": "inhibition of classical pathway lysis", "setting": "[1]; sensitized sheep erythrocytes", "value": "effective in inhibiting the classical pathway"}, {"measurement": "inhibition of classical pathway lysis", "setting": "[1]; unsensitized sheep erythrocytes", "value": "effective in inhibiting the classical pathway"}, {"measurement": "dose response of vasodilatation", "setting": "[2]", "value": "dose response could not be determined"}, {"measurement": "rings vasodilated", "setting": "[2]; two of seven controls dilated, Fisher exact P 0.045", "value": "10 of the 12"}, {"measurement": "growth of A7-BaF-3 cells", "setting": "[3]", "value": "enhanced the growth"}, {"measurement": "binding curve to collagen type VI", "setting": "[4]", "value": "fits a typical hyperbolic binding curve"}, {"measurement": "inhibition of alternate pathway lysis", "setting": "[5]", "value": "no apparent inhibition"}]}]}
